B1: H4H17033P (antibody, human IgG4, V domains shown)
VH: QVQLVQSGAEVKKPGASVKVSCKASGYTFAAHYMHWVRQAPGQGLEWMGWINTYTGGTNYGQKFQGRVTMTRDTSITTAYMELSRLRSDDTAVYYCARDRRNWNFVFEYWGQGTLVTVSS
VL: DIQMTQSPSSLSASVGDRVTISCRASQNIKNYLNWYQQKPGKAPKLLIYEASNLQSGAPSRFSGSGSGTDFTLTISSLEPEDFATYYCQQSFSIPWTFGQGTKVEIK
B2: H4H16992P (antibody, human IgG4 S228P, kappa, V domains shown)
VH: QVQLQESGPGLVKPSETLSLTCSVSGGSITNYFWTWIRQSPGKGLEWIGYIYYSGGTNYNPSLKSRVTISIDTSKNQFSLNMNSVTAADTAVYYCAGSYYYGVDVWGQGTTVTVSS
VL: EIVLTQSPATLSLSPGERATLSCRASQSIKSFLAWYRQKPGQAPRLLIYDASNRPTGIPARFSGSGSGTDFTLTINSLESEDFAVYFCQQRNNWPFTFGPGTKVDIKR
notes: human IgG4; also called REGN5713; MAB1
B3: H4H16946P (antibody, human IgG4, V domains shown)
VH: EVQLVESGGGLVQPGGSLRLSCVASGFTFSNYDMNWVRQAPGEGLEWISYISYSDHNIYYIDSVKGRFTISRDNAKNSLYLQMNSLRAEDTAIYYCAREALASSSFDYWGQGTLVTVSS
VL: EIVMTQSPATLSVSPGERVTLSCRASQSVSGNLAWYQQKPGQAPRLLIYSASTGATGVPARFSGSGSGTEFTLTISSLQSEDFALYYCQQYNKWPRTIGQGTKVEIK
B4: H4H16979P (antibody, human IgG4, V domains shown)
VH: QVQLVQSGAEVKKPGASVKVSCKASGYTFIAYYLHWVRQAPGQGLEWMGLLNPYTGGSYYTQKFQGRVTMTRDTSIDTAYMELNSLRSDDTAIYYCARDKRSYYIPYAFEIWGQGTMVTVSS
VL: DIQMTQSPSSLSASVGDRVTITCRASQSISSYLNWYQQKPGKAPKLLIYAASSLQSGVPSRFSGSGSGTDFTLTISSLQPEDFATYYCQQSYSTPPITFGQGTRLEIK
B5: H4H17038P2 (antibody, human IgG4 S228P, kappa, V domains shown)
VH: EVQLVESGGDLVQPGGSLRLSCAASGFTFSSYEMNWVRQAPGKGLEWVSFISDSSSNIYYADSVKGRFTISRDNAKKSLYLQMTSLRAEDTAVYYCAREAIGSTSFDNWGQGTLVTVSS
VL: EIVMTQSPATLSVSPGERATLSCRASQSVSSSLAWYQQKPGQAPRRLIYSASTRATGIPARFSGSGSGTEFTLTISSLQSEDFAIYYCHQYNNWPLTFGGGTKVEIKR
notes: human IgG4; also called REGN5714; MAB3
B6: H4H17028P (antibody, human IgG4, V domains shown)
VH: QVQLVESGGGVVQPGRSLRLSCAASGFTFSRYAIHWVRQAPGKGLEWVAVISYDGDDKYYGDSVKGRFTISRDNSKTMVYLHMNSLRTEDTAVYYCAKDGYSLYGKDYFDYWGQGTLVTVSS
VL: EIVLTQSPGTLPLSPGERATLSCRASQSITNSYLAWYQQKPDQAPRLLIYGASSRATGIPDRFSGSESGTDFTLTISRLEPEDFAVYYCQQYVRSPWTFGQGTKVEIK
B7: H4H17027P (antibody, human IgG4, V domains shown)
VH: EVQLVESGGGLVQPGGSLRLSCAASGFTFRNYAMHWVRQAPGEGLEWVAAIYRNSDSIDYADSVKGRFTISRDNAKNSLYLQMNSLKTEDTALYYCAKDEGFLEYFDSWGQGTLVTVSS
VL: EIVLTQSPGTLSLSPGERASLSCRASQSVSSSFLAWYQQKPGQAPRLLIYGVSSRFIGIPDRFSGGGSGTDFTLTITRLEPEDFAVYYCQQYGRSPWTFGQGTKVEIK
B8: H4H16987P (antibody, human IgG4 S228P, kappa, V domains shown)
VH: EVQLVESGGGLVQPGGSLRLSCAASGFTVSSNSMSWVRQAPGEGLEWVSVIFSGGITYYSDSVKGRFTISRHNSKNTLYLQMNSLRTEDTAVYYCARHSNWNFDAFDIWGQGTMVTVSS
VL: DIQMTQSPSSLSASVGDRVTITCRASQSFDTYLNWYQQKPGKAPNLLIYATSSLQSGVPSRFSGSGSGTDFTLTISSLQPEDFGTYYCQQSYSIPYTFGQGTKLEIKR
notes: human IgG4; also called MAB4
B9: H4H17031P (antibody, human IgG4, V domains shown)
VH: QVQLQQWGAGLLKPSETLSLTCVVYGESFGNYHWNWIRQSPGKRLEWIGEINQNGHTNYNPSLKSRVTISVDTSKIQFSLRLNSVTAADTAVYFCARGHNYVNSYFGLDVWGQGTTVTVSS
VL: EIVMTQSPATLSVSPGERATLSCRTSQSVSISLAWYQRKPGQAPRLLIFGSSTRATGVPARFSGSGSGTEFTLTISSLQSEDFAVYYCQQYNNWPYTFGQGTKLEIK
B10: H4H16971P (antibody, human IgG4, V domains shown)
VH: QVQLVESGGGVVQPGRSLRLSCAASGFTFSSYGLHWVRQAPGKGLEWVAVISDDGSYKFYADSMKGRFTISRDNSKNTLYLQMNSLRAEDTAVYYCAKDRGRSGWYYFDYWGQGTLVTVSS
VL: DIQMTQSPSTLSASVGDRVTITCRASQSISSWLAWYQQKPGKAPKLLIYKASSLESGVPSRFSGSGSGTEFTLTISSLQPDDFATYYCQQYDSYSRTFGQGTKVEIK

These binders were tested against T1, Alder (Aln g 1, MyBiosource, Cat #MBS1041484) (Alder, UniProt P38948 2-160, limits assumed) (assay: SPR Biacore, 25C;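 note: binding of related allergens to purified monoclonal anti-Bet v 1 antibodies by surface plasmon resonance in HEPES-buffered saline pH 7.4, kinetics fitted to a 1:1 model with mass transport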).
T1 construct: Bought reagent
T1 sequence (looked up): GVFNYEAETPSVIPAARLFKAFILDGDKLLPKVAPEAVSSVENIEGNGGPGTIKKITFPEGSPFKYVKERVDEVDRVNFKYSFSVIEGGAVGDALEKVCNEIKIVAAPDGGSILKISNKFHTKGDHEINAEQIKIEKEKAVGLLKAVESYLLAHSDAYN
B1: no binding (tested: 100 nM).
B2: no binding (tested: 100 nM).
B3: no binding (tested: 100 nM).
B4: no binding (tested: 100 nM).
B5: no binding (tested: 100 nM).

What follows are binders tested against T2, Apple (Mal d 1, MyBiosource, Cat #MBS1224919) (Apple, UniProt P43211 2-159, limits assumed) (assay: SPR Biacore, 25C;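 note: binding of related allergens to purified monoclonal anti-Bet v 1 antibodies by surface plasmon resonance in HEPES-buffered saline pH 7.4, kinetics fitted to a 1:1 model with mass transport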).
T2 construct: Bought reagent
T2 sequence (looked up): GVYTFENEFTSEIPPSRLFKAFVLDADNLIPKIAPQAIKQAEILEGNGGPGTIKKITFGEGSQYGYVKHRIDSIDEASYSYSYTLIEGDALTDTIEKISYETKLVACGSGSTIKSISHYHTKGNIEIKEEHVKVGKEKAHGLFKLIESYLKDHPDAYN
B6: no binding (tested: 100 nM).
B7: no binding (tested: 100 nM).
B1: no binding (tested: 100 nM).
B2: no binding (tested: 100 nM).
B3: no binding (tested: 100 nM).
B8: no binding (tested: 100 nM).
B4: no binding (tested: 100 nM).
B5: no binding (tested: 100 nM).
B9: no binding (tested: 100 nM).

What follows are binders tested against T3, Celery (Api g 1, MyBiosource, Cat #MBS1171376) (Celery, UniProt P49372 1-154, limits assumed) (assay: SPR Biacore, 25C;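 note: binding of related allergens to purified monoclonal anti-Bet v 1 antibodies by surface plasmon resonance in HEPES-buffered saline pH 7.4, kinetics fitted to a 1:1 model with mass transport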).
T3 construct: Bought reagent
T3 sequence (looked up): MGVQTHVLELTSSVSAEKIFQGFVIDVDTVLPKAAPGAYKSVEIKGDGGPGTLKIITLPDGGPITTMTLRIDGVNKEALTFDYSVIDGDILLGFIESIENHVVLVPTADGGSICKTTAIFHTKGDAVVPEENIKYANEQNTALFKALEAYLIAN
B6: no binding (tested: 100 nM).
B7: no binding (tested: 100 nM).
B2: no binding (tested: 100 nM).
B3: no binding (tested: 100 nM).
B8: no binding (tested: 100 nM).
B4: no binding (tested: 100 nM).
B5: no binding (tested: 100 nM).
B10: no binding (tested: 100 nM).
B9: no binding (tested: 100 nM).

What follows are binders tested against T4, European Hornbeam (Car b 1 isoform 1A & 1B, MyBiosource, Cat #MBS1200018) (European Hornbeam, UniProt P38949 2-160) (assay: SPR Biacore, 25C;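 note: binding of related allergens to purified monoclonal anti-Bet v 1 antibodies by surface plasmon resonance in HEPES-buffered saline pH 7.4, kinetics fitted to a 1:1 model with mass transport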).
T4 construct: Bought reagent
T4 sequence (looked up): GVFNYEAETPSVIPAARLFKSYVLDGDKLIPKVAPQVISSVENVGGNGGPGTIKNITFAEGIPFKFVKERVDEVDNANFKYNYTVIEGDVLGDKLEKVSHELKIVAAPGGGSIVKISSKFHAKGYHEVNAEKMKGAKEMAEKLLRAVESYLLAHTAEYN
B1: no binding (tested: 100 nM).
B8: no binding (tested: 100 nM).
B4: no binding (tested: 100 nM).
B10: no binding (tested: 100 nM).

The binders below were run against T5, natural Bet v 1 (Indoor, Cat #NA-BV1-1) (Betula verrucosa (European white birch, …, UniProt P15494 2-160)) (assay: SPR Biacore, mAb captured on anti-hFc, 25C;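 note: rate constants from sensorgrams fitted to a 1:1 model with mass transport limitation, KD and t½ derived from kinetic constants, run in HBS-ET buffer at pH 7.4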).
T5 construct: Bought natural protein purified from birch pollen; also called nBet v 1
T5 sequence: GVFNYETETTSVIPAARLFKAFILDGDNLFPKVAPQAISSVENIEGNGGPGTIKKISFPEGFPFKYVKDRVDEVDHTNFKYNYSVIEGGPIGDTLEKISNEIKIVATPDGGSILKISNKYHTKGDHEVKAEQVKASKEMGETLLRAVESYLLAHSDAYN
For B6, the “100 nM natural Bet v 1 Bound (RU)” value was 63 RU, the Kd was 3.79 nM and the koff was 0.00107 s⁻¹. It also gave a kon of 281000 M⁻¹ s⁻¹ and a t½ of 11 min.
For B7, the “100 nM natural Bet v 1 Bound (RU)” value was 48 RU, the Kd was 4.32 nM and the koff was 0.00027 s⁻¹. The kon was 62400 M⁻¹ s⁻¹ and the t½ was 43 min.
For B1, the “100 nM natural Bet v 1 Bound (RU)” value was 61 RU, the Kd was 1.19 nM and the koff was 0.000469 s⁻¹. It also gave a kon of 394000 M⁻¹ s⁻¹ and a t½ of 25 min.
B3 was tested, and the “100 nM natural Bet v 1 Bound (RU)” value was 74 RU, the Kd was 0.982 nM and the koff was 0.000201 s⁻¹. The kon was 205000 M⁻¹ s⁻¹ and the t½ was 58 min.
In the case of B8, the “100 nM natural Bet v 1 Bound (RU)” value is reported as 61 RU, the Kd is reported as 2.77 nM and the koff is reported as 0.00114 s⁻¹. It also gave a kon of 410000 M⁻¹ s⁻¹ and a t½ of 10 min.
B4 was tested, and the “100 nM natural Bet v 1 Bound (RU)” value was 41 RU, the Kd was 1.21 nM and the koff was 0.000278 s⁻¹. For the same binder, the kon was 230000 M⁻¹ s⁻¹ and the t½ was 42 min.
B10 was tested, and the “100 nM natural Bet v 1 Bound (RU)” value was 57 RU, the Kd was 3.26 nM and the koff was 0.000781 s⁻¹. The kon was 240000 M⁻¹ s⁻¹ and the t½ was 15 min.
B9 was tested, and the “100 nM natural Bet v 1 Bound (RU)” value was 54 RU, the Kd was 13.5 nM and the koff was 0.00168 s⁻¹. The kon was 124000 M⁻¹ s⁻¹ and the t½ was 6.8 min.

The binders below were run against T5, natural Bet v 1 (Indoor, Cat #NA-BV1-1) (assay: SPR Biacore, mAb captured on anti-hFc, 37C;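 note: purified anti-Bet v 1 monoclonal antibodies, HBS-ET running buffer pH 7.4, rate constants from 1:1 model fit with mass transport limitation, KD and t½ calculated from kinetic constants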).
B6 was tested, and the “100 nM natural Bet v 1 Bound (RU)” value was 71 RU, the Kd was 7.77 nM and the koff was 0.0029 s⁻¹. The kon was 373000 M⁻¹ s⁻¹ and the t½ was 3.9 min.
With B7 the “100 nM natural Bet v 1 Bound (RU)” value was 67 RU, the Kd was 9.48 nM and the koff was 0.00093 s⁻¹. The kon was 98100 M⁻¹ s⁻¹ and the t½ was 12 min.
In the case of B1, the “100 nM natural Bet v 1 Bound (RU)” value is reported as 74 RU, the Kd is reported as 1.9 nM and the koff is reported as 0.00119 s⁻¹. The kon was 627000 M⁻¹ s⁻¹ and the t½ was 10 min.
With B3 the “100 nM natural Bet v 1 Bound (RU)” value was 93 RU, the Kd was 2.08 nM and the koff was 0.000601 s⁻¹. For the same binder, the kon was 289000 M⁻¹ s⁻¹ and the t½ was 19 min.
With B8 the “100 nM natural Bet v 1 Bound (RU)” value was 74 RU, the Kd was 9.16 nM and the koff was 0.00477 s⁻¹. For the same binder, the kon was 520000 M⁻¹ s⁻¹ and the t½ was 2.4 min.
In the case of B4, the “100 nM natural Bet v 1 Bound (RU)” value is reported as 52 RU, the Kd is reported as 1.8 nM and the koff is reported as 0.000616 s⁻¹. For the same binder, the kon was 342000 M⁻¹ s⁻¹ and the t½ was 19 min.
With B10 the “100 nM natural Bet v 1 Bound (RU)” value was 66 RU, the Kd was 6.93 nM and the koff was 0.00244 s⁻¹. For the same binder, the kon was 352000 M⁻¹ s⁻¹ and the t½ was 4.7 min.
B9 was tested, and the “100 nM natural Bet v 1 Bound (RU)” value was 63 RU, the Kd was 27.9 nM and the koff was 0.00544 s⁻¹. The kon was 485000 M⁻¹ s⁻¹ and the t½ was 2.1 min.

From patent US20240083986A1 (published 2024)
